This is an account of results in patent US20200377555A1.

Common to all, as to details: remark: other sources report otherwise
The target in experiment [1] is T1, UFV5367 (influenza A H1N1 A/Brisbane/59/07), A8C8J4.
Experiment [2] deals with Full length HA H1N1 A/Brisbane/59/07 (influenza A H1N1 A/Brisbane/59/07), B4URD6.
Experiment [3] addresses T1, UFV5367 (influenza A H1N1 …). This is another data set of the same source.
Experiment [4] has the same target. Kind of experiment: ELISA, polypeptide coated, antibody titrated; average of 3 independent assays. (In an ELISA, binding on a coated surface is turned into a signal by an enzyme label.)
The target in experiment [5] is UFV180499 H5 A/Hong Kong/156/97 (influenza A H5 A/Hong Kong/156/97).

A word on the Kd: it is the free concentration of one partner at which half of the binding sites on the other are occupied at equilibrium, for simple one-to-one binding. Low values mean a tighter complex, high ones a looser complex. By EC50 is commonly meant the concentration needed to bring the measured effect to its halfway point. The term EC50 (read off the curve) denotes the concentration needed to bring the measured effect to its halfway point. Lower therefore signals higher potency in that assay.

B1: Fab fragment of mAb CR6261 (Fab, V domains shown)
VH: EVQLVESGAEVKKPGSSVKVSCKASGGPFRSYAISWVRQAPGQGPEWMGGIIPIFGTTKYAPKFQGRVTITADDFAGTVYMELSSLRSEDTAMYYCAKHMGYQVRETMDVWGKGTTVTVSS
VL: QSVLTQPPSVSAAPGQKVTISCSGSSSNIGNDYVSWYQQLPGTAPKLLIYDNNKRPSGIPDRFSGSKSGTSATLGITGLQTGDEANYYCATWDRRPTAYVVFGGGTKLTVLG
On to B1, for which the MW polypeptide + Fab6261 (kDa) in experiment [1] turned out to be 204 kDa.

B2: CR6261 (antibody, V domains shown)
VH: EVQLVESGAEVKKPGSSVKVSCKASGGPFRSYAISWVRQAPGQGPEWMGGIIPIFGTTKYAPKFQGRVTITADDFAGTVYMELSSLRSEDTAMYYCAKHMGYQVRETMDVWGKGTTVTVSS
VL: QSVLTQPPSVSAAPGQKVTISCSGSSSNIGNDYVSWYQQLPGTAPKLLIYDNNKRPSGIPDRFSGSKSGTSATLGITGLQTGDEANYYCATWDRRPTAYVVFGGGTKLTVLG
Take B2: the values for the Kd in experiment [2] and in experiment [3] were 1.1 nM and 0.48 nM, respectively. The same molecule showed an EC50 in experiment [4] of 0.417 nM.

B3: CR9114 (antibody, V domains shown)
VH: QVQLVQSGAEVKKPGSSVKVSCKSSGGTSNNYAISWVRQAPGQGLDWMGGISPIFGSTAYAQKFQGRVTISADIFSNTAYMELNSLTSEDTAVYFCARHGNYYYYSGMDVWGQGTTVTVSS
VL: SYVLTQPPAVSGTPGQRVTISCSGSDSNIGRRSVNWYQQFPGTAPKLLIYSNDQRPSVVPDRFSGSKSGTSASLAISGLQSEDEAEYYCAAWDDSLKGAVFGGGTQLTVL
Take B3: the EC50 (read off the curve) in experiment [5] amounted to 0.02 µg/mL.
